According to patent publication US10350158B2, “2′ fluoro-modified RNAs as immunostimulators” (DUKE UNIVERSITY, priority 2013, dated 2019):
Strand notation (5' to 3'): a small letter for the sugar, then the base; units joined by * are phosphorothioate-linked, units joined directly phosphodiester-linked; [ ] holds rarer units or linkages, { } end groups; capitals alone tell only the bases. {ppp} = triphosphate; r = 2'-OH (RNA); f = 2'-fluoro

System: IFNβ
Assay: IFNβ ELISA of transfected melanoma cell supernatants
Assay type: cell-based, human
Protocol: For the intracellular delivery of immune stimulatory RNAs, RNAs were transfected with the DharmaFECT® Duo liposomal transfection reagent (Thermo Scientific, Waltham, Mass.) at a transfection reagent (μl):RNA (μg) ratio of 3.75:1, according to the manufacturer's instructions. Unless otherwise stated, for the induction of innate immune responses and apoptosis, immune stimulatory RNAs (500 ng/ml) were transfected into 50 to 70% confluent cells. Cells were incubated with an RNA-transfection agent complex for 5 h, followed by replenishment with fresh culture medium. To electroporate cells, 1×10^5 cells suspended in 200 μl Opti-MEM I (Invitrogen) were mixed with 1 μg of immune stimulatory RNAs or 5 μg of 2'Fluoro pyrimidine ribonucleoside triphosphate in 2-mm cuvettes and were electroporated at 300 V for 500 μs using an Electro Square Porator ECM 830 (BTX, San Diego, Calif.). For the knockdown of RNA-sensing PRRs, cells were transfected with PRR-specific siRNAs (25 nM) twice at 2-day intervals using DharmaFECT®-1 (Thermo Scientific). At 5 h after the second siRNA transfection, cells were harvested, replated into a 96-well plate and incubated overnight. Cells were then treated with immune stimulatory RNA transfections. Staurosporine (2 μM) (Sigma, St Louis, Mo.) and recombinant human IFNβ (20 ng/ml) (PeproTech, Rocky Hill, N.J.) were used as positive controls of anti-melanoma cytotoxicity. […] (100 ng/ml) (eBioscience, San Diego, Calif.) was added directly to the growth media of cells to neutralize IFNβ. Cells were transfected with RNAs as described above. At 24 hours after RNA transfection, culture supernatants were collected and stored at -80° C. for later analyses. The production of human IL-8 was analyzed with a human IL-8 ELISA kit (eBioscience). IFN-β production was determined with a human IFN-β ELISA kit (PBL Biomedical Laboratories, Piscataway, N.J.) by following the manufacturer's instructions.

B1: 10F: 5′ppp 2′F pyrimidine ssRNA aptamer, 71 nt, human melanocytic cell-targeting, SEQ ID NO: 4 (nucleic acid)
chain: {ppp}-rGrGrGrArGrGrAfCrGrAfUrGfCrGrGfUrAfCfCfUrGrAfCrArGfCrAfUfCfUfUrGrAfUrArAfUrGrGfUfCfCfUrAfCrGrGrArGfCfCrGfUfUfCfCrArGrAfCrGrAfCfUfCrGfCfCfCrGrA
0.5 μg/ml, 24 h, ELISA
  IFNβ production, fold compared to unmodified 5′ppp RNAs: over 2 fold
Aptamer treated with bacterial alkaline phosphatase (BAP), 0.125 μg/ml
  IFNβ production after dephosphorylation of the aptamer: partially prevented
Liposomal transfection, ELISA
  IFNβ production / induction, in words: strong induction
